From the Immune Epitope Database (IEDB)

Assays:
Assay in all cases: IEDB peptide-MHC binding, purified MHC/competitive/radioactivity; ≥ and ≤ were set here for values at or beyond the usual limits of such assays
[1] = target: HLA-A*02:03
[2] = target: HLA-A*02:06
[3] = target: HLA-A*02:01
[4] = target: HLA-A*02:02
[5] = target: HLA-A*68:02
[6] = source organism: Vaccinia virus WR
[7] = source organism: Hepacivirus hominis
[8] = source organism: Mammarenavirus whitewaterense
[9] = source organism: Influenza A virus

Sequence	IC50 [1, 6] [nM]	IC50 [2, 6] [nM]	IC50 [3, 6] [nM]	IC50 [4, 6] [nM]	IC50 [5, 6] [nM]	other results
AMLKSKNINI	223	200	175	1650	4740	–
RIVVALSSLV	7.2	9.6	51	48	8.5	–
YLYNKYSFKL	0.035	0.14	0.078	0.11	4.8	–
GVCYYLLMHL	64	128	124	96	80	–
TSISGVLWTV	–	–	–	–	–	IC50 [1, 7]: 27 nM; IC50 [2, 7]: 82 nM; IC50 [3, 7]: 26 nM; IC50 [4, 7]: 8.1 nM; IC50 [5, 7]: 2.2 nM
LLFQLCTFT	–	–	–	–	–	IC50 ([1]; source organism: SARS-CoV1): 3.8 nM; IC50 ([2]; source organism: SARS-CoV1): 11 nM; IC50 ([3]; source organism: SARS-CoV1): 833 nM; IC50 ([4]; source organism: SARS-CoV1): 22 nM; IC50 ([5]; source organism: SARS-CoV1): 855 nM
NLDDVYSYI	96	92	3.8	0.72	1030	–
VMYASALVLL	–	–	–	–	–	IC50 ([1]; source organism: SARS-CoV1): 4 nM; IC50 ([2]; source organism: SARS-CoV1): 41 nM; IC50 ([3]; source organism: SARS-CoV1): 5.7 nM; IC50 ([4]; source organism: SARS-CoV1): 0.25 nM; IC50 ([5]; source organism: SARS-CoV1): 756 nM
NTTTFITVLT	596	600	559	1960	34	–
ILSCIFAFI	3.1	8.8	1.8	0.79	1.3	–
RTMPNESRV	100	155	1510	140	14	–
TLLNETAKV	83	11	28	246	1670	–
AITLVVISVI	786	2000	494	406	2380	–
ALKAYFTAKI	77	2780	1600	194	4110	–
SIISLFYTFA	28	94	205	111	51	–
CNYTKFWYV	–	–	–	–	–	IC50 [1, 8]: 794 nM; IC50 [2, 8]: 35 nM; IC50 [3, 8]: 725 nM; IC50 [4, 8]: 1940 nM; IC50 [5, 8]: 247 nM
FVMCLEAKT	1940	979	3840	609	1510	–
FVNFVKDMI	124	229	1790	55	0.62	–
YVILKDPRI	203	12	778	1550	847	–
HVLLPFYETL	213	115	17	29	2270	–
EAAAATCALV	248	60	318	1810	0.21	–
AIFNNRNLAA	103	774	1330	450	2860	–
SCLENFRAYV	–	–	–	–	–	IC50 [1, 9]: 55 nM; IC50 [2, 9]: 162 nM; IC50 [3, 9]: 20 nM; IC50 [4, 9]: 90 nM; IC50 [5, 9]: 224 nM
ILASFSAST	–	–	–	–	–	IC50 ([1]; source organism: SARS-CoV1): 5.3 nM; IC50 ([2]; source organism: SARS-CoV1): 457 nM; IC50 ([3]; source organism: SARS-CoV1): 16 nM; IC50 ([4]; source organism: SARS-CoV1): 1.6 nM; IC50 ([5]; source organism: SARS-CoV1): 1220 nM
ALYSPPLISI	150	162	1130	1.4	323	–
SMYVIPDELI	114	492	380	31	1740	–
NTISGNIYSA	314	393	640	269	0.19	–
